How the values were obtained:
[1] = molecular target: apolipoprotein E ɛ2 (apoE ɛ2) (human (endogenous in plasma)) (UniProt P02649); test: non-reducing SDS-PAGE with western blot
[2] = molecular target: apolipoprotein E ɛ3 (apoE ɛ3) (human (endogenous in plasma)) (UniProt P02649); test: non-reducing SDS-PAGE with western blot

Row | stoichiometry N [1] | stoichiometry N [2] | Substance
1 | 2 |  | apolipoprotein E ɛ2 (apoE ɛ2) (from UniProt P02649 19-317) (natural protein)
2 |  | 2 | apolipoprotein E ɛ3 (apoE ɛ3) (from UniProt P02649 19-317) (natural protein)
